In the test the target is T1, HLA-A*03:01 (human).
T1 construct: MHC class I monomer first loaded with a UV-sensitive peptide that is cleaved by UV irradiation and exchanged for the test peptide; captured on streptavidin plates; also called peptide-receptive MHC molecules
As to the kind of experiment: UV-ligand exchange, anti-b2m ELISA; peptide exchange yield grade (>10% +, >20% ++, >50% +++, >75% ++++). An excerpt:
Candidate peptides for T cell based therapies according to the present invention were further tested for their MHC binding capacity (affinity). The individual peptide-MHC complexes were produced by UV-ligand exchange, where a UV-sensitive peptide is cleaved upon UV-irradiation and exchanged with the peptide of interest as analyzed. Only peptide candidates that can effectively bind and stabilize the peptide-receptive MHC molecules prevent dissociation of the MHC complexes. To determine the yield of the exchange reaction, an ELISA was performed based on the detection of the light chain (β2m) of stabilized MHC complexes. The assay was performed as generally described in Rodenko et al. (Rodenko et al., 2006)
96 well MAXISorp plates (NUNC) were coated over night with 2 ug/ml streptavidin in PBS at room temperature, washed 4× and blocked forl h at 37° C. in 2% BSA containing blocking buffer. Refolded HLA-A*02:01/MLA-001 monomers served as standards, covering the range of 15-500 ng/ml. Peptide-MHC monomers of the UV-exchange reaction were diluted 100-fold in blocking buffer. Samples were incubated for 1 h at 37° C., washed four times, incubated with 2 ug/ml HRP conjugated anti-β2m for 1 h at 37° C., washed again and detected with TMB solution that is stopped with […]. Absorption was measured at 450 nm.
A general note: An ELISA detects its analyte on a solid surface through an enzyme-linked reagent.
VVYDTMIEKF gave a peptide exchange yield of over 75%.
For VSLSKMLKK, the peptide exchange yield was 50 to 75%.
ALSRMSQQY gave a peptide exchange yield of over 75%.
RMGFRTLSK returned a peptide exchange yield of over 75%.
LASSPAGHK registered a peptide exchange yield of 50 to 75%.
The figure for ATSPPASVR is over 75%; for ATNGKVLKK it is over 75%.
In the case of KVASFTVIGY, the peptide exchange yield fell in the range of 50 to 75%.
Under RLAQYTIER stands over 75%.
TVFLSKYLKK gave a peptide exchange yield of 50 to 75%.
The figure for TVFVELWLK is 20 to 50%.
Under AVVQGLVEK stands 20 to 50%.
The figure for SLFEGIYTIK is over 75%; for RALGVPFVPR it is over 75%; for TVYVAMCHKF it is over 75%.
Regarding ALARVSSVKL, the peptide exchange yield was 50 to 75%.
Under AVAFFVLPSK stands over 75%.
Under RVDSKQRYY stands over 75%.
Regarding RLRDYISSLK, the peptide exchange yield was over 75%.
Under RVYPHKTLY stands 50 to 75%; under SIYKKAVYR, over 75%.
The figure for KLFMPRPK is 50 to 75%; for KVLTRNIEY it is 50 to 75%; for SPRVYWLGLNDR it is 10 to 20%.
Regarding VVYDTMIEK, the peptide exchange yield lay within 50 to 75%.
Under VAFFVLPSK stands 20 to 50%.
The molecule AILHPFRAK showed a peptide exchange yield of 50 to 75%.
Under LIGPLLICK stands over 75%; under ASLAAAVLAK, 50 to 75%; under SLLKPSGDYFK, 50 to 75%.
For the molecule ASSFRPLLSK, the peptide exchange yield is 50 to 75%.
The figure for SLLEADPFLK is 50 to 75%.
The figure for AATIISSAK is 10 to 20%.
Molecule RLLPGKVVWK displayed a peptide exchange yield of over 75%.
The figure for MLYYPSVSR is over 75%; for VSLGIAVSK it is 20 to 50%; for MKTLPAMLGTGK it is 20 to 50%.
The figure for LLLAAVTVK is 20 to 50%; for VSIRNTLLY it is 10 to 20%; for TIASVLVAR it is 20 to 50%.
Under QVLDLQSVK stands 20 to 50%; under ILNLNKMVK, 50 to 75%.
As to TLLSYELAFK, the peptide exchange yield was over 75%.
The figure for KIKKPLSYR is over 75%; for TRMQKAGFLYY it is 20 to 50%.
In the case of ATNGKVLKKR, the peptide exchange yield was over 75%.
The figure for PLAMLAATCNK is 20 to 50%; for VSYNRLIK it is 50 to 75%.
The figure for GLAAGALLLY is 20 to 50%.
LLRSGLTLR gave a peptide exchange yield of 20 to 50%.
Under IIFIPATILLK stands over 75%; under SLRGSFPILY, 10 to 20%.
Under RIGNKGIYK stands 50 to 75%; under KVFAEHKISY, 50 to 75%.
Under GGLSSQGVYY stands 20 to 50%.
In turn, KLQNLPTLLY had a peptide exchange yield of 50 to 75%.
For KIICGVHYLY, the peptide exchange yield is 10 to 20%.
Under KTLGKIAEK stands over 75%; under SLLTVSGAWAK, over 75%; under ATIGLSVSK, over 75%.
Under RLYAPVVNISRL stands 50 to 75%.

The values are drawn from patent publication US20200000897A1 (published 2020).
